± gives the uncertainty stated by the source.

This series is described as follows: amyloid nucleation score (Sup35N fusion, yeast selection) (log enrichment); library NNK3; higher = more nucleation; inactive = no reads after selection. The method in brief:
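The nucleation score is the DiMSum log enrichment of output over input reads, centred on the mode score of non-aggregating sequences. Only sequences with 100 or more input reads were scored, using Illumina sequencing of input and output plasmid inserts. Psi-negative yeast expressing Sup35N fused to peptides of 20 random codons were induced 24 hours with 100 μM copper sulfate and grown 7 days at 30°C on medium lacking adenine and uracil.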
In the case of PGHFLECRKW, the amyloid nucleation score was -0.096 ± 0.66.
Turning to PGMISSQGSYTFRAWAVSLR, the amyloid nucleation score result is “inactive”.
As for PGRMRVVTVMKMWLTALSLK, the amyloid nucleation score entry was “inactive”.
With PGSASYSLVRGQDYYLTIYC, the amyloid nucleation score entry is “inactive”.
Turning to PGSDWDMLIMKGMKKRYLDY, the amyloid nucleation score result was “inactive”.
On to PGSYGHGGWNTEFGCQVAIW, for which the amyloid nucleation score was -0.593 ± 1.9.
As for PGTIYVGCRLLIYGTNTADL, the amyloid nucleation score result is “inactive”.
For PHCVWDFLVRYGMDENRVKY, the amyloid nucleation score result was “inactive”.
Next, PHHSRYAFYGNPTLAI: “inactive”; PIAHFM: “inactive”.
Regarding PIMAWIWWRASDPMQKRLVG, the amyloid nucleation score result was “inactive”.
Next, PINETRSEESLVGSRGM: “inactive”.
For the substance PITDFTSNISNSRDPLQVRG, the amyloid nucleation score entry is “inactive”.
On to PKCPCTWSRTYCVVLWLPRR, for which the amyloid nucleation score entry was “inactive”.
Regarding PKLSRSYVLSMMVTWRNSKV, the amyloid nucleation score result was “inactive”.
Take PLAFWTCCYCLTWNLRLSWQ: the amyloid nucleation score came to 1.6 ± 0.059.
PLHSWKQCALRRVSSNTSSG: the amyloid nucleation score is 1.75 ± 0.093.
Consider PLKGDTVSYCGV, for which the amyloid nucleation score result was “inactive”.
Regarding PLKTLFCSVLSCVIFLYLLM, the amyloid nucleation score entry was “inactive”.
On to PLNMSRCTLALTLFVISFGW, for which the amyloid nucleation score result is “inactive”.
For PLVDPLGELYAATFCSGEYC, the amyloid nucleation score entry was “inactive”.
PLWAYKYVPGFYRVFKVCLM: the amyloid nucleation score result is “inactive”.
To PLWSRCLYRLSAGGACSVWK belongs “inactive”; to PMHAIIKLYM, “inactive”; to PNRVGAVPGG, “inactive”.
PPCWLYDFVTNVNNWWYEHC: the amyloid nucleation score entry was “inactive”.
Take PPGLGYSMVFYSSVDMHMLS: the amyloid nucleation score entry is “inactive”.
PPRSSLFTFNIFKYNNLYNA came in with an amyloid nucleation score of 2.72 ± 0.066.
To PQADLVRFAMCRRAMNLVPW belongs “inactive”; to PQLCESLELSEKRRTEDLVG, “inactive”; to PQLLVSYYL, “inactive”.
PQRWLSPSYSRIVRM registered an amyloid nucleation score of 1.39 ± 0.14.
As to PRAMLPDWSSALVWWLN, the amyloid nucleation score entry is “inactive”.
For the substance PRGIDG, the amyloid nucleation score result is “inactive”.
PRHWFREFMGMVMI: the amyloid nucleation score turned out to be 0.317 ± 0.51.
PRIFLSR: the amyloid nucleation score result was “inactive”.
In turn, PRLHRECNEGEVGL registered an amyloid nucleation score of 0.206 ± 0.81.
PRLRHVICHGRFWNPMIQVG returned an amyloid nucleation score of 0.971 ± 0.19.
To PRLSAFVLRNYLRPKGYGGA belongs “inactive”; to PRRTNKVARGGRHARVRKVE, “inactive”.
Next, PRVIHWSLALNSSHCNFVFF: 2.67 ± 0.073.
In the case of PSCMSDCISIIYS, the amyloid nucleation score entry is “inactive”.
To PSFGDEDTYNRDLALTLMDC belongs “inactive”; to PSPLDSRLEHYRMDSTCRVV, “inactive”.
In turn, PSSSYPKSLRINMAFSFLMC showed an amyloid nucleation score of 0.49 ± 0.53.
On to PSTVTFRWFIVVSPLRHWFA, for which the amyloid nucleation score entry was “inactive”.
In turn, PSVWFFSTETFMVRCPADC gave an amyloid nucleation score of 0.549 ± 0.33.
Turning to PSYLKTFRDVLMTVSMYFVC, the amyloid nucleation score entry is “inactive”.
Next, PTAESPLMPFNA: -0.478 ± 0.69.
Turning to PTAFWGFGF, the amyloid nucleation score result was “inactive”.
As to PTHILPYLVD, the amyloid nucleation score entry was “inactive”.
Take PTNFD: the amyloid nucleation score result is “inactive”.
As to PVAMAYAVSSVVDMASN, the amyloid nucleation score result was “inactive”.
Take PVFFM: the amyloid nucleation score entry was “inactive”.
With PVGHSSMSLYRGR, the amyloid nucleation score entry is “inactive”.
In the case of PVGKMDLRIDKNSWSYLVLD, the amyloid nucleation score entry was “inactive”.
To PVGVLYTSANGTDFVNIVRD belongs “inactive”.
PVHSFNLAIYMRLFHVWPVF: the amyloid nucleation score result was “inactive”.
Next, PVISMHIVVLCGKQKKTMSP: 0.594 ± 0.23.
Next, PVKLC: “inactive”.
Take PVLEYKVL: the amyloid nucleation score result is “inactive”.
As to PVLPQGLRVLYDSVSVTSHL, the amyloid nucleation score result was “inactive”.
For PVMSS, the amyloid nucleation score entry is “inactive”.
For PVNIVCTVNSLSGSYED, the amyloid nucleation score entry is “inactive”.
Take PVNNIYGRLPGLLKLEKVSS: the amyloid nucleation score entry is “inactive”.
Next, PVSAH: 1.08 ± 0.17.
Take PVVHFLWSLYRNLVCVDGKV: the amyloid nucleation score entry is “inactive”.
As for PWCVKIHRWVLYWSYKLSIS, the amyloid nucleation score entry was “inactive”.
To PWFTMVRIGEMVLYLRMQRR belongs “inactive”.
In the case of PWGEILINGR, the amyloid nucleation score result is “inactive”.
To PYQDIMNSQESGGDE belongs “inactive”.
To PYVECSWEAQG belongs “inactive”; to QAIGIRICSK, “inactive”.
As for QASIVSTG, the amyloid nucleation score was -0.926 ± 2.4.
With QDIELMFSFFDGKAFSSYHL, the amyloid nucleation score is -0.787 ± 0.98.
Turning to QDTLVPYMFKQITVYVYGLA, the amyloid nucleation score entry is “inactive”.
In the case of QDVAFAAEYELTKCSVLFSN, the amyloid nucleation score entry was “inactive”.
To QDYGYFNTYQFVRKWSSISL belongs “inactive”; to QEAGFMYGCYFVILQNHAGF, 1.3 ± 0.092.
Next, QELLPIRYLVE: “inactive”; QFIEMSSQYFSMRYVDRVAD: “inactive”; QFNMKVFMHDWWRLLLPKSK: “inactive”.
Next, QGSRLNGIKSPLCIGLKCSR: “inactive”; QGWPRKITVILFWILQSGSR: “inactive”.
For QHMSRYYVFLLNCIQCIMNG, the amyloid nucleation score stood at 1.58 ± 0.12.
Consider QHNLRDGMFLNGTYRNDAVR, for which the amyloid nucleation score result was “inactive”.
Regarding QHTAFLRKVSPSLRG, the amyloid nucleation score result is “inactive”.
Regarding QIHNRTMPCWRSKATVLGKT, the amyloid nucleation score result was “inactive”.
Take QIKKAINHHKYFW: the amyloid nucleation score entry was “inactive”.
Regarding QILYFVDTEVSYMEASWRDS, the amyloid nucleation score entry was “inactive”.
Take QKHISY: the amyloid nucleation score result was “inactive”.
As to QKIIVSR, the amyloid nucleation score entry is “inactive”.
Consider QLCPHYFCKNKNATYGLTSR, for which the amyloid nucleation score result is “inactive”.
On to QLFTVTLQLTLLSKIDTANL, for which the amyloid nucleation score amounted to 1.03 ± 0.13.
To QLHVMNVYFFWKDSSALMRA belongs “inactive”; to QLMDLTGFRRSSVYVLVCDF, “inactive”; to QLSSYFRGLLFQCHSPQHGY, “inactive”.
Consider QLTLACSRLQAGLSSQRHLS, for which the amyloid nucleation score entry is “inactive”.
To QLVLPSFMVTLSCG belongs “inactive”.
To QMQTATRHFNLG belongs “inactive”; to QNMFSSANRLMSTC, “inactive”; to QNRLQTSFMVGQRGNTLVTN, “inactive”.
As to QNSGFWIRMH, the amyloid nucleation score is -1.38 ± 2.4.
For the substance QNVKIRRGICEEFYRRVQLD, the amyloid nucleation score entry was “inactive”.
To QPCDHWHEDLNVCVVVIYAG belongs “inactive”.
With QPCPYKLCQFFRKDA, the amyloid nucleation score result was “inactive”.
To QPMKLRT belongs “inactive”; to QQEKLCLKHTSQVDI, “inactive”.
Turning to QQEMCTLFFRN, the amyloid nucleation score result was “inactive”.
Next, QQSTIIFFVWAWMELNPTWK: “inactive”.
To QQYYVAWFCDYDLFNCMNLM belongs 1.99 ± 0.095.
As for QRIHGLF, the amyloid nucleation score result was “inactive”.
Next, QRNSCLDFMK: “inactive”; QRYSLHDINEDYRYDWVNGL: “inactive”.
Next, QSDRVPRILLGKRFKSPLSF: “inactive”; QSLSVEH: “inactive”; QSNCCWVV: “inactive”.
To QSRSRSNARARWVVSKLSCS belongs 0.21 ± 0.53; to QSWLMPFCLVSSTWKV, “inactive”; to QTDMWIDTWKVQPVWIEDEG, “inactive”.
For the substance QTMDTYLWLAR, the amyloid nucleation score is -0.083 ± 1.1.
As for QTMLIM, the amyloid nucleation score entry is “inactive”.
As to QVFHFGCSEDARCVCRVHM, the amyloid nucleation score entry is “inactive”.
QVFLRMKRRICVPLFYLACN yielded an amyloid nucleation score of 0.422 ± 0.21.
As to QVGSLFWLRY, the amyloid nucleation score entry is “inactive”.
Next, QVSLSRRISFYGHLNSDNES: “inactive”; QWFVRNFLFNPNALRYFRSS: “inactive”.
QYICTLTCSYFLGSMTIEHK: the amyloid nucleation score is -0.022 ± 0.66.
For QYRDSYANSSQNPFHCFFNL, the amyloid nucleation score entry is “inactive”.
For the substance QYSHPQRIIFSF, the amyloid nucleation score is -0.249 ± 0.43.
Regarding RAALLGVSADFTKHTTRVWE, the amyloid nucleation score entry was “inactive”.
For the substance RAGATTFGVMVYKYDKFRQD, the amyloid nucleation score entry was “inactive”.
